Data published in IntAct's records for PubMed 20553494.

B1: Homeobox protein Meis2 (Homo sapiens), O14770-4 (parent)
chain: MAQRYDELPHYGGMDGVGVPASMYGDPHAPRPIPPVHHLNHGPPLHATQHYGAHAPHPNVMPASMGSAVNDALKRDKDAIYGHPLFPLLALVFEKCELATCTPREPGVAGGDVCSSDSFNEDIAVFAKQVRAEKPLFSSNPELDNLMIQAIQVLRFHLLELEKVHELCDNFCHRYISCLKGKMPIDLVIDERDGSSKSDHEELSGSSTNLADHNPSSWRDHDDATSTHSAGTPGPSSGGHASQSGDNSSEQGDGLDNSVASPGTGDDDDPDKDKKRQKKRGIFPKVATNIMRAWLFQHLTHPYPSEEQKKQLAQDTGLTILQVNNWFINARRRIVQPMIDQSNRAVSQGAAYSPEGQPMGSFVLDGQQHMGIRPAGLQSMPGDYVSQGGPMGMSMAQPSYTPPQMTPHPTQLRHGPPMHSYLPSHPHHPAMMMHGGPPTHPGMTMSAQSPTMLNSVDPNVGGQVMDIHAQ
partner: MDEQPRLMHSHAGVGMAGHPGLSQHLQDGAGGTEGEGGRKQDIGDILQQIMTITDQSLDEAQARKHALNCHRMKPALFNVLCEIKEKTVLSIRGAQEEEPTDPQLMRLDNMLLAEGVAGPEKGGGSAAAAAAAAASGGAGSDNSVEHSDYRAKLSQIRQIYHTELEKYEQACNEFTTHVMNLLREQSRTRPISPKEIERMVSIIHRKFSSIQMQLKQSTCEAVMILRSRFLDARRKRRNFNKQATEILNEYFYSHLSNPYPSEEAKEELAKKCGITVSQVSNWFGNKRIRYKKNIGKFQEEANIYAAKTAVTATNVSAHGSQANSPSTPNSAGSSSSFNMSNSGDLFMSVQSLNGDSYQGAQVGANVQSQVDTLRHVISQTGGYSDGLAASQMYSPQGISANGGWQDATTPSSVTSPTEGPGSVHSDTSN

Variants of: B1
Settings: with pbx1_human PBX1, P40424

effect of a mutation on the interaction | Variant
decreasing interaction | MAQRYDELPHYGGMDGVGVPASMYGDPHAPRPIPPVHHLNHGPPLHATQHYGAHAPHPNVMPASMGSAVNDALKRDKDAIYGHPLFPALALVFEKCELATCTPREPGVAGGDVCSSDSFNEDIAVFAKQVRAEKPLFSSNPELDNLMIQAIQVLRFHLLELEKVHELCDNFCHRYISCLKGKMPIDLVIDERDGSSKSDHEELSGSSTNLADHNPSSWRDHDDATSTHSAGTPGPSSGGHASQSGDNSSEQGDGLDNSVASPGTGDDDDPDKDKKRQKKRGIFPKVATNIMRAWLFQHLTHPYPSEEQKKQLAQDTGLTILQVNNWFINARRRIVQPMIDQSNRAVSQGAAYSPEGQPMGSFVLDGQQHMGIRPAGLQSMPGDYVSQGGPMGMSMAQPSYTPPQMTPHPTQLRHGPPMHSYLPSHPHHPAMMMHGGPPTHPGMTMSAQSPTMLNSVDPNVGGQVMDIHAQ [L88A]
decreasing interaction | MAQRYDELPHYGGMDGVGVPASMYGDPHAPRPIPPVHHLNHGPPLHATQHYGAHAPHPNVMPASMGSAVNDALKRDKDAIYGHPAFPLLALVFEKCELATCTPREPGVAGGDVCSSDSFNEDIAVFAKQVRAEKPLFSSNPELDNLMIQAIQVLRFHLLELEKVHELCDNFCHRYISCLKGKMPIDLVIDERDGSSKSDHEELSGSSTNLADHNPSSWRDHDDATSTHSAGTPGPSSGGHASQSGDNSSEQGDGLDNSVASPGTGDDDDPDKDKKRQKKRGIFPKVATNIMRAWLFQHLTHPYPSEEQKKQLAQDTGLTILQVNNWFINARRRIVQPMIDQSNRAVSQGAAYSPEGQPMGSFVLDGQQHMGIRPAGLQSMPGDYVSQGGPMGMSMAQPSYTPPQMTPHPTQLRHGPPMHSYLPSHPHHPAMMMHGGPPTHPGMTMSAQSPTMLNSVDPNVGGQVMDIHAQ [L85A]

Variants of: B1
Settings: with pbx1_human PBX1, P40424
Remark: another data set of the same source

effect of a mutation on the interaction | Variant
decreasing interaction | MAQRYDELPHYGGMDGVGVPASMYGDPHAPRPIPPVHHLNHGPPLHATQHYGAHAPHPNVMPASMGSAVNDALKRDKDAIYGHPLFPLLALVFEKCELATCTPREPGVAGGDVCSSDSFNEDIAVFAKQVRAEKPLFSSNPELDNLMIQAIQVLRFHLLEAEKVHELCDNFCHRYISCLKGKMPIDLVIDERDGSSKSDHEELSGSSTNLADHNPSSWRDHDDATSTHSAGTPGPSSGGHASQSGDNSSEQGDGLDNSVASPGTGDDDDPDKDKKRQKKRGIFPKVATNIMRAWLFQHLTHPYPSEEQKKQLAQDTGLTILQVNNWFINARRRIVQPMIDQSNRAVSQGAAYSPEGQPMGSFVLDGQQHMGIRPAGLQSMPGDYVSQGGPMGMSMAQPSYTPPQMTPHPTQLRHGPPMHSYLPSHPHHPAMMMHGGPPTHPGMTMSAQSPTMLNSVDPNVGGQVMDIHAQ [L161A]
decreasing interaction | MAQRYDELPHYGGMDGVGVPASMYGDPHAPRPIPPVHHLNHGPPLHATQHYGAHAPHPNVMPASMGSAVNDALKRDKDAIYGHPLFPLLALVFEKCELATCTPREPGVAGGDVCSSDSFNEDIAVFAKQVRAEKPLFSSNPELDNLMIQAIQVLRFHLAELEKVHELCDNFCHRYISCLKGKMPIDLVIDERDGSSKSDHEELSGSSTNLADHNPSSWRDHDDATSTHSAGTPGPSSGGHASQSGDNSSEQGDGLDNSVASPGTGDDDDPDKDKKRQKKRGIFPKVATNIMRAWLFQHLTHPYPSEEQKKQLAQDTGLTILQVNNWFINARRRIVQPMIDQSNRAVSQGAAYSPEGQPMGSFVLDGQQHMGIRPAGLQSMPGDYVSQGGPMGMSMAQPSYTPPQMTPHPTQLRHGPPMHSYLPSHPHHPAMMMHGGPPTHPGMTMSAQSPTMLNSVDPNVGGQVMDIHAQ [L159A]

Variants of: B1
Settings: with pbx1_human PBX1, P40424
Remark: another data set of the same source

effect of a mutation on the interaction | Variant
decreasing interaction | MAQRYDELPHYGGMDGVGVPASMYGDPHAPRPIPPVHHLNHGPPLHATQHYGAHAPHPNVMPASMGSAVNDALKRDKDAIYGHPLFPLLALVFEKCTLATCTPREPGVAGGDVCSSDSFNEDIAVFAKQVRAEKPLFSSNPELDNLMIQAIQVLRFHLLELEKVHELCDNFCHRYISCLKGKMPIDLVIDERDGSSKSDHEELSGSSTNLADHNPSSWRDHDDATSTHSAGTPGPSSGGHASQSGDNSSEQGDGLDNSVASPGTGDDDDPDKDKKRQKKRGIFPKVATNIMRAWLFQHLTHPYPSEEQKKQLAQDTGLTILQVNNWFINARRRIVQPMIDQSNRAVSQGAAYSPEGQPMGSFVLDGQQHMGIRPAGLQSMPGDYVSQGGPMGMSMAQPSYTPPQMTPHPTQLRHGPPMHSYLPSHPHHPAMMMHGGPPTHPGMTMSAQSPTMLNSVDPNVGGQVMDIHAQ [E97T]
decreasing interaction | MAQRYDELPHYGGMDGVGVPASMYGDPHAPRPIPPVHHLNHGPPLHATQHYGAHAPHPNVMPASMGSAVNDALKRDKDAIYGHPLFPLLALVFNKCELATCTPREPGVAGGDVCSSDSFNEDIAVFAKQVRAEKPLFSSNPELDNLMIQAIQVLRFHLLELEKVHELCDNFCHRYISCLKGKMPIDLVIDERDGSSKSDHEELSGSSTNLADHNPSSWRDHDDATSTHSAGTPGPSSGGHASQSGDNSSEQGDGLDNSVASPGTGDDDDPDKDKKRQKKRGIFPKVATNIMRAWLFQHLTHPYPSEEQKKQLAQDTGLTILQVNNWFINARRRIVQPMIDQSNRAVSQGAAYSPEGQPMGSFVLDGQQHMGIRPAGLQSMPGDYVSQGGPMGMSMAQPSYTPPQMTPHPTQLRHGPPMHSYLPSHPHHPAMMMHGGPPTHPGMTMSAQSPTMLNSVDPNVGGQVMDIHAQ [E94N]

Variants of: B1
Settings: with pbx1_human PBX1, P40424
Remark: another data set of the same source

effect of a mutation on the interaction | Variant
decreasing interaction | MAQRYDELPHYGGMDGVGVPASMYGDPHAPRPIPPVHHLNHGPPLHATQHYGAHAPHPNVMPASMGSAVNDALKRDKDAIYGHPLFPLLALVFEKCELATCTPREPGVAGGDVCSSDSFNEDIAVFAKQVRAEKPLFSSNPELDNLMIQAIQVLRFHLLELAKVHELCDNFCHRYISCLKGKMPIDLVIDERDGSSKSDHEELSGSSTNLADHNPSSWRDHDDATSTHSAGTPGPSSGGHASQSGDNSSEQGDGLDNSVASPGTGDDDDPDKDKKRQKKRGIFPKVATNIMRAWLFQHLTHPYPSEEQKKQLAQDTGLTILQVNNWFINARRRIVQPMIDQSNRAVSQGAAYSPEGQPMGSFVLDGQQHMGIRPAGLQSMPGDYVSQGGPMGMSMAQPSYTPPQMTPHPTQLRHGPPMHSYLPSHPHHPAMMMHGGPPTHPGMTMSAQSPTMLNSVDPNVGGQVMDIHAQ [E162A]
